Consider 1 molecule from patent US7247438.

The assay concerns the target T1, purified, recombinant Yama/caspase-3, P42574.
T1 chain: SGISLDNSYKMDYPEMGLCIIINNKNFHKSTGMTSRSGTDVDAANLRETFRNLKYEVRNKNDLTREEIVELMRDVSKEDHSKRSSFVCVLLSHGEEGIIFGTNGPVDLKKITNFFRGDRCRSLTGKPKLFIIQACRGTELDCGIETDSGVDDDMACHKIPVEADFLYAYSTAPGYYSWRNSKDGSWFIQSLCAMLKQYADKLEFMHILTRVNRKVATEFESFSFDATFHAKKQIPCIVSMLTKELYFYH
The assay is described as follows: recombinant enzyme labelled with biotinylated inhibitor, blot. The conditions noted are these: remark: other sources report otherwise.

B1: biotin-YVADamk (peptide)
peptide: YVAD
modifications: not checked
B1: the fold more enzyme needed for detection came out at 100 times.
